US20230416383A1
pKd: −log10 of the molar value.

Tests used:
Experiment in all cases: SPR, mean +/- SD (n = 3)
[1] = molecular target: Cynomolgus FcγRIIb (cynomolgus monkey)
[2] = molecular target: recombinant Human Fc gamma RIIIA/CD16a (V176F) (human) (UniProt P08637)
[3] = molecular target: Human FcγRIIIb (human) (UniProt O75015)
[4] = molecular target: Cynomolgus FcγRIII (cynomolgus monkey) (UniProt Q8SPW2)
[5] = molecular target: Cynomolgus FcγRIIa (cynomolgus monkey)
[6] = molecular target: human FcγRI (hCD64) (human) (UniProt P12314)
UniProt P12314, sequence (P12314 16-288 limits assumed): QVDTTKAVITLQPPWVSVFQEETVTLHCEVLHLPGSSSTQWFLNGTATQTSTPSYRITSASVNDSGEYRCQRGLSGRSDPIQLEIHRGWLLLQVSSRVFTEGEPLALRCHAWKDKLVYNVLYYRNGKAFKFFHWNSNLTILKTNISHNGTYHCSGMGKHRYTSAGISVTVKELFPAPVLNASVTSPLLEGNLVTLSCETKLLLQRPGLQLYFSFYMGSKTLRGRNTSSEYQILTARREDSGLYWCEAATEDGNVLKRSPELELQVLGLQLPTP

[7] = molecular target: Human FcγRIIa (human) (UniProt P12318)
UniProt P12318, sequence (P12318 36-218 limits assumed): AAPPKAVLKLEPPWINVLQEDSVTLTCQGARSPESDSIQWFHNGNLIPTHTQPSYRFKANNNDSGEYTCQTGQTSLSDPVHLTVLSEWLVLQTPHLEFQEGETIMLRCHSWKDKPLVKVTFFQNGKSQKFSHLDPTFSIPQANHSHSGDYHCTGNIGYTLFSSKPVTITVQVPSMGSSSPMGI

[8] = molecular target: Cynomolgus FcγRI (cynomolgus monkey)
[9] = molecular target: Cynomolgus FcRn (cynomolgus monkey) (UniProt Q8SPV9)
[10] = molecular target: recombinant Human Fc gamma RIIIA/CD16a (V176) (human) (UniProt P08637)
[11] = molecular target: Human FcγRIIb (human) (UniProt P31994)
UniProt P31994, sequence (P31994 46-217 limits assumed): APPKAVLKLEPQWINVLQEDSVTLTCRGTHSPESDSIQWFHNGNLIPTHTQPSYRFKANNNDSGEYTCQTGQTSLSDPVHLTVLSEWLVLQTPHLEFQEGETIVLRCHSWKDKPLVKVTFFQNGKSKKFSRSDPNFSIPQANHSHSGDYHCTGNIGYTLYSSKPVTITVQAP

UniProt O75015, sequence (O75015 17-200 limits assumed): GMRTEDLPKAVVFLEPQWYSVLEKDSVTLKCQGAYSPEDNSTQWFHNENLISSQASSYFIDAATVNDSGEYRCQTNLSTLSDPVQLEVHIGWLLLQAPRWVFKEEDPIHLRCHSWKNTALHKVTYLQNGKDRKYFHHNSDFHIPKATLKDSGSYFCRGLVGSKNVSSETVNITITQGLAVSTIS
UniProt Q8SPW2, sequence (Q8SPW2 17-208 limits assumed): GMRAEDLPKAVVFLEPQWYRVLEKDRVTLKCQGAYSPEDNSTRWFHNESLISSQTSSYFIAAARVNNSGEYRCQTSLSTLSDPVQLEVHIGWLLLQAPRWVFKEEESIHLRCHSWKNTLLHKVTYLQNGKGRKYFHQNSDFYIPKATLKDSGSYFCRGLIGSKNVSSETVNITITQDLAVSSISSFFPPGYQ

pKd [1]: 5.63
pKd [2]: 5.55
pKd [3]: 5.12
pKd [4]: 6.24
pKd [5]: 5.20
pKd [6]: 9.70
pKd [7]: 5.80
pKd [8]: 7.74
pKd [9]: 6.63
pKd [10]: 6.24
pKd [11]: 5.37
Substance: Human IgG1 control (antibody)
